Experimental data taken from article PMC3328272, “HIV-1 Nef interaction influences the ATP-binding site of the Src-family kinase, Hck” (BMC Chemical Biology, 2012).

B1: wild-type human Hck SH3 domain (domain or fragment)
chain: not shown
notes: also called hHck SH3; source: E. coli BL21(DE3)pLysS, purified (anion exchange, IMAC, size-exclusion chromatography)
B2: wild-type mouse Hck SH3 domain (domain or fragment, UniProt P08103 76-136, looked up)
chain: SEDTIVVALYDYEAIHREDLSFQKGDQMVVLEEAGEWWKARSLATKKEGYIPSNYVARVNS
notes: also called mHck SH3; mSH3; source: E. coli BL21(DE3)pLysS, purified (anion exchange, IMAC, size-exclusion chromatography)

Target: T1, HIV-1 Nef-SF2, untagged (HIV-1 (SF2), UniProt P03407)
T1 construct: also called Nef (B-clade allele SF2); source: E. coli, purified without N-terminal His tag (anion exchange HiPrep Q FF, gel filtration Superdex 75)
Experiment: SPR
Conditions: both partners purified

T1 sequence (P03407 whole entry): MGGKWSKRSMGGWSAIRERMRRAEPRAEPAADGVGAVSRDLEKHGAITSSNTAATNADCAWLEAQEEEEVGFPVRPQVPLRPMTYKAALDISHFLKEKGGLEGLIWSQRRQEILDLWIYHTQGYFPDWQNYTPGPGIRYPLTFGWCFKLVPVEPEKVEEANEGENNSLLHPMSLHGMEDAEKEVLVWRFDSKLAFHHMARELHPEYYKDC

Binder	Kd	koff	kon
B1	70 ± 10 nM	0.0118 ± 0.04 s⁻¹	160000 ± 0.06 M⁻¹ s⁻¹
B2	130 ± 30 nM	0.07 ± 0.36 s⁻¹	554000 ± 1.77 M⁻¹ s⁻¹
